According to article PMC10554743:
Each block holds one substance with its values, some of them ahead of it.

Assays:
[1] = target: McdB CC domain truncation (Synechococcus elongatus PCC 7942); experiment: SEC-MALS; Shodex PROTEIN KW-804; 50 µl at 1.5 mg/ml; 150 mM KCl, 20 mM Tris-HCl pH 8.2; BSA as calibration standard
[2] = target: McdB IDR + CC truncation (Synechococcus elongatus PCC 7942); experiment: as above
[3] = target: McdB with all six basic residues of the IDR substituted to glutamines; experiment: SEC-MALS
[4] = target: McdB CC + CTD truncation (Synechococcus elongatus PCC 7942); experiment: SEC-MALS; Shodex PROTEIN KW-804; 50 µl at 1.5 mg/ml; 150 mM KCl, 20 mM Tris-HCl pH 8.2; BSA as calibration standard
[5] = target: McdB with four glutamine substitutions in the CTD; experiment: SEC-MALS
[6] = target: McdB with four glutamine substitutions in the CTD; experiment: SEC-MALS; remark: listed apart in the source
McdB CTD 2Q left = experiment: SEC-MALS
[7] = target: Se7942 McdB (full-length, wild type) (Synechococcus elongatus PCC 7942); experiment: SEC-MALS; Shodex PROTEIN KW-804; 50 µl at 1.5 mg/ml; 150 mM KCl, 20 mM Tris-HCl pH 8.2; BSA as calibration standard
[8] = target: McdB with all six basic residues of the IDR substituted to glutamines (Synechococcus elongatus PCC 7942); experiment: as above

- stoichiometry N [1]: 2
Substance: McdB CC domain truncation (domain or fragment)

- stoichiometry N [2]: 2
Substance: McdB IDR + CC truncation (domain or fragment)

- other: multiple (oligomer MW over monomer MW) ([3]; parent: 5.5): 5.6 x
- other: oligomer MW (SEC-MALS) ([3]; parent: 96.4): 96.1 kDa
Substance: Se7942 McdB (full-length, wild type) R7Q; K9Q; K10Q; R11Q; R13Q; R18Q

- stoichiometry N [4]: 6
Substance: McdB CC + CTD truncation (domain or fragment)

- other: multiple (oligomer MW over monomer MW) ([5]; parent: 5.5): 1.8 x
- other: oligomer MW (SEC-MALS) ([5]; parent: 96.4): 31.8 kDa
- other: multiple (oligomer MW over monomer MW) ([6]; parent: 5.5): 1.8 x
- other: oligomer MW (SEC-MALS) ([6]; parent: 96.4): 31.8 kDa
Substance: Se7942 McdB (full-length, wild type) CTD all: … -> … (E->Q, E->Q, E->Q, D->Q at segment positions 1, 2, 9, 11)

- other: multiple (oligomer MW over monomer MW) (McdB CTD 2Q left; parent: 5.5): 4.5 x
- other: oligomer MW (SEC-MALS) (McdB CTD 2Q left; parent: 96.4): 77.8 kDa
Substance: Se7942 McdB (full-length, wild type) CTD 2Q left: … -> … (E->Q, E->Q at segment positions 1, 2)

- stoichiometry N [7]: 6
Substance: Se7942 McdB (full-length, wild type) (natural protein)

- stoichiometry N [8]: 6
Substance: McdB with all six basic residues of the IDR substituted to glutamines (natural protein)
